# Read-outs that look alike come from different tables or passages of the source.
# How the values were obtained:
# [1] = mouse, in vivo, iv
# Text: Following PET acquisition, tumors and relevant organs were removed from mice, weighed, and total activity for each was quantified by a Wallac gamma counter (Perkin Elmer, Waltham, MA). […] The specific activity of the labeled peptide was 296±25.9 MBq/mg.
# human MDA-MB-453 tumors = system: human MDA-MB-453 tumors; set-up: species or system mice; settings: mouse, in vivo
# Protocol: Following imaging, mice were treated with 100 mg/kg of lapatinib every 12 hours for 48 hours following PET imaging. At the end of 48 hours, mice were imaged in the exact same manner as before treatment.
# [2] = system: HCC-1954 cells (low HER3); assay: HER3 peptide cellular binding (streptavidin-HRP absorbance, fluorescent microscopy), HCC-1954; format: cell-based; settings: fixed HCC-1954 cells, 250 nM peptide
# Protocol: (§1) Two cell lines, MDA-MB-453 breast cancer cells which express moderate levels of HER3 and HCC-1954 cells which express low levels of HER3, were chosen to assess the ability of the peptide to discriminate between relatively close expression levels in vitro. Cells were seeded at a density of 1×10^5 cells/well in 96 well plates (Fisher) and grown overnight for 24 h in fetal bovine serum supplemented medium. HER3 peptide or a control peptide were added at 250 nM in media and incubated for 1 h at 37° C. Cells were washed 3× with PBS and bound peptide detected by addition of streptavidin-HRP. Cells were once again washed and bound peptide detected by addition of ABTS and absorbance read at 405 nm. Visual confirmation of peptide binding was confirmed by fluorescent microscopy. MDA-MB-453 and HCC-1954 cells were fixed in 10% formalin and dried onto microscope slides overnight. Following rehydration with TBS, slides were blocked with 2% BSA in TBS for 1 h prior to addition of peptide at a concentration of 250 nM in 0.1% TBST and incubation at room temperature for 1 h. Cells were washed 3× with 0.1% TBST and neutravidin-Alexafluor488 was added to cells and incubated at room temperature for 1 h. Cells were washed, mounted with Vectorshield mounting media with DAPI (Vector Labs, Burlingame, CA) and visualized by inverted microscope (Olympus, Tokyo, Japan).
# [3] = system: MDA-MB-453 breast cancer cells (moderate HER3); assay: HER3 peptide cellular binding (streptavidin-HRP absorbance, fluorescent microscopy), MDA-MB-453; format: cell-based
# Protocol: as §1
# EGFR = EGFR (Homo sapiens, UniProt P00533); settings: 250 nM peptide, 405 nm
# Protocol: (§2) The purity and molecular weight were determined by high performance liquid chromatography and mass spectrometry. […] Following blocking with 1% non-fat dry milk, increasing concentrations of peptide were incubated with target protein for 1 h at 37° C. Wells were washed with 0.1% TBST, and bound peptide detected by addition of HRP-conjugated streptavidin (Abeam, Cambridge, UK), washing and ABTS substrate incubation for 10 minutes. Absorbance at 405 nm was read by spectrophotometer. […] Plates were washed and bound peptide once again detected by addition of streptavidin-HRP and ABTS and absorbance read at 405 nm.
# HER3 ECD = HER3 ECD (Homo sapiens, UniProt P21860); settings: peptide ELISA absorbance
# Sequence of HER3 ECD (P21860 20-643 limits assumed): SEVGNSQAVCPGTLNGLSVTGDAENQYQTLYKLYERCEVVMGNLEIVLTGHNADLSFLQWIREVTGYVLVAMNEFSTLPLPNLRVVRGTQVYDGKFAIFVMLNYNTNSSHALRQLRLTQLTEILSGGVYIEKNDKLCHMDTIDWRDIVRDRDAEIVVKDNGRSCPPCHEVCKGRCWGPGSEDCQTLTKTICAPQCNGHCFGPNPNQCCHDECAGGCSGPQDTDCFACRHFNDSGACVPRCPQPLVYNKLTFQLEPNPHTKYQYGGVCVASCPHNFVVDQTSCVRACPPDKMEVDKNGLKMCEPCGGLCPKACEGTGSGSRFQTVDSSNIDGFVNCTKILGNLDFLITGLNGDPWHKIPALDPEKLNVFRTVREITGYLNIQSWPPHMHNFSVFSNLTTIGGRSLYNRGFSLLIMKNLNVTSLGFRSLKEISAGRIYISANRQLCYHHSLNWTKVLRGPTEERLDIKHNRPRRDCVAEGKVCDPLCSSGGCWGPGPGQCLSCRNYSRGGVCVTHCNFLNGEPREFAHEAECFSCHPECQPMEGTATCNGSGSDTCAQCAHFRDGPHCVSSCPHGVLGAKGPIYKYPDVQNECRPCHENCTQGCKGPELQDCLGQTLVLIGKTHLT
# Protocol: as §2
# TNBC cell lines [4] = settings: criterion for cell lines considered sensitive (HDQ-P1, CAL-51, HCC-70, CAL-148, HCC-1395, HS-578T); cited from earlier work
# TNBC cell lines [5] = settings: criterion for cell lines considered sensitive (CAL-148, HCC-70, CAL-51, HCC-1395, HS-578T); cited from earlier work
# [6] = system: 22RV1 (high HER3 expressing prostate cancer) tumors; set-up: species or system Nu/nu mice; settings: mouse, in vivo
# Protocol: (§3) The peptide was radio labeled with the radiometal ^68Ga eluted from a ^68Ge/^68Ga generator (iThemba, South Africa) in 0.05M HCl. The pH of the elution was adjusted to approximately 4 by 2M=2-[4-(2-hydroxyethyl) piperazin-1-yl]ethanesulfonic acid and 100 ng of peptide reacted with the elution for 10 min at room temperature. Peptide was purified from free ^68Ga by reverse phase C18 cartridge (Waters, Milford, MA) and purity determined by ITLC. The peptide was then prepared in normal saline to a specific activity of approximately 300 MBq/mg for injection into mice. Nu/nu mice bearing either 22RV1 (high HER3 expressing prostate cancer) or HCC-1954 (low HER3 expressing breast cancer) tumors were implanted in the right upper flank of mice and grown to approximately 5-7 mm. Radiolabeled HER3 peptide was injected intravenously and allowed to circulate for 1 h prior to PET imaging. PET images were acquired on an Inveon micro PET/CT (Siemens, Knoxville, TN) for 15 minutes in list mode, followed by CT acquisition. Images were constructed using 3D-MLEM (20 subsets) and corrected for scatter and randoms. The tumor and blood uptake was calculated in a 3D region of interest drawn around the tumor and heart, respectively, using CT guidance. Images were post-processed using VivoQuant (InviCRO, Boston, MA).
# [7] = system: HCC-1954 (low HER3 expressing breast cancer) tumors; set-up: species or system Nu/nu mice; settings: mouse, in vivo
# Protocol: as §3
compound,measurement,setting,value
C-L-P-T-K-F-R-S-C [HER3P1],"biodistribution, HER3+ tumors",[1],0.50±0.18 % ID/g
same,"biodistribution, intestines",[1],0.48±0.15 % ID/g
same,"biodistribution, kidneys",[1],10.1±1.67 % ID/g
same,"biodistribution, lungs",[1],0.70±0.14 % ID/g
same,"biodistribution, stomach",[1],0.30±0.07 % ID/g
same,SUVmean,human MDA-MB-453 tumors,0.42±0.04
same,binding by fluorescent microscopy,[2],almost no visualization
same,cell binding absorbance,"[3]; MDA-MB-453, 250 nM peptide, 1 h 37° C., 405 nm",0.29±0.06
same,binding by fluorescent microscopy,"[3]; fixed MDA-MB-453 cells, 250 nM peptide",high binding
same,absorbance of binding to EGFR,EGFR,0.21±0.09
same,"selectivity/specificity for HER3 over other proteins (EGFR, HER2, BSA)",HER3 ECD,approximately 4 fold
same,"selectivity/specificity for HER3 over other proteins (EGFR, HER2, BSA)",HER3 ECD; listed as displayed peptide conjugated to biotin,greater than 4 fold
CS(=O)(=O)N1CCN(Cc2cc3nc(-c4cccc5[nH]ncc45)nc(N4CCOCC4)c3s2)CC1 [GDC-0941],IC50,TNBC cell lines [4],< 1000 nM
CC(C)NC[C@@H](C(=O)N1CCN(c2ncnc3c2[C@H](C)C[C@H]3O)CC1)c1ccc(Cl)cc1 [GDC-0068],IC50,TNBC cell lines [5],< 1000 nM
"CC(C)C[C@@H]1NC(=O)[C@@H](NC(=O)CNC(=O)CNC(=O)CNC(=O)CCNC(=S)Nc2ccc(CC3CN(CC(=O)O)CCN(CC(=O)O)CCN3CC(=O)O)cc2)CSSC[C@@H](C(=O)O)NC(=O)[C@H](CO)NC(=O)[C@H](CCCNC(=N)N)NC(=O)[C@H](Cc2ccccc2)NC(=O)[C@H](CCCCN)NC(=O)[C@H]([C@@H](C)O)NC(=O)[C@@H]2CCCN2C1=O (stereo partly drawn) [^68Ga-(NOTA-NCS)-HER3P1, ^68Ga-(NOTA-NCS)-beta A-G-G-G-C-L-P-T-K-F-R-S-C, metal not drawn]",off-target peptide accumulation,[6],minimal
same,tumor uptake by PET imaging,[6],high
same,standardized tumor to blood ratios (TBR),[6]; iv,1.60-3.32
same,tumor uptake by PET imaging,[7],much lower levels
same,standardized tumor to blood ratios (TBR),[7]; iv,0.69-0.94
